The target in the test is T1, TSLP receptor (TSLPR) (mouse (endogenous in mouse thymocytes)) (UniProt Q8CII9).
T1 sequence: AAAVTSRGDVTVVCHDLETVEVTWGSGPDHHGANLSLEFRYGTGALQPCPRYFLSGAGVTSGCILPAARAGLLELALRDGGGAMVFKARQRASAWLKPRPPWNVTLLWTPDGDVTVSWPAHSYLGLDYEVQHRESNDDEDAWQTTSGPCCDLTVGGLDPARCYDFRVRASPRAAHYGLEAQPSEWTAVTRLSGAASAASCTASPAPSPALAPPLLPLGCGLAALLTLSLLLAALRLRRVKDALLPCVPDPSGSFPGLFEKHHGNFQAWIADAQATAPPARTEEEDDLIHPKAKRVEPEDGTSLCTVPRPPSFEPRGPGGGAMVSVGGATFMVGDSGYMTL

The results in this text go back to article PMC1450317.

B1: thymic stromal derived lymphopoietin (TSLP), recombinant mouse (ligand)
chain: YNFSNCNFTSITKIYCNIIFHDLTGDLKGAKFEQIEDCESKPACLLKIEYYTLNPIPGCPSLPDKTFARRTREALNDHCPGYPETERNDGTQEMAQEVQNICLNQTSQILRLWYSFMQSPE
As for B1, the FoxP3 mRNA (real-time PCR, FoxP3/18S) in purified CD4+CD8-CD25+ adult thymocytes cultured with TSLP for two days is 2 fold and the FoxP3 mRNA (real-time PCR, FoxP3/18S) in purified CD4+CD8-CD25- adult thymocytes cultured with TSLP for two days turned out to be 10 fold.
